T1: Recombinant marmoset IL-18 (marmoset, UniProt U3CWC9 37-190)
T1 construct: also called marIL-18
T1 sequence: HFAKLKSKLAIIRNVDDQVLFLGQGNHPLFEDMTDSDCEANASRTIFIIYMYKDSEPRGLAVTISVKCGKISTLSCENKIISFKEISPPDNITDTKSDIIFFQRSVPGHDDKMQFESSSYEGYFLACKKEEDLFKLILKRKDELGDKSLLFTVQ


Key:
[1] = target: T2, Recombinant marmoset IL-1β (marmoset, UniProt U3E018 117-268); assay: cell-based or functional assay
Recombinant human IL-18 = target: T3, Recombinant human IL-18 (human, UniProt Q14116 37-193); assay: SET simultaneous target binding, Assay B (both targets in serial dilutions in one mix), ECL read-out
T3 construct: A biotinylated form (BTP25828) was coated on the read-out plate in the SET assay; The titrated antigen in solution is huIL-18; also called huIL-18

[2] = target: T1, Recombinant marmoset IL-18; assay: as above
Recombinant human IL-1β = target: T4, Recombinant human IL-1β (human, UniProt P01584 117-269); assay: as above
T4 construct: also called huIL-1β

[3] = target: T2, Recombinant marmoset IL-1β; assay: as above

Binder | IL-6 prod. in dermal fibroblasts stimulated with recombinant marmoset IL-1β (18 pM), IC50, Exp. A (marmoset dermal fibroblasts by the column head) [1] [pM] | IL-6 prod. in dermal fibroblasts stimulated with recombinant marmoset IL-1β (18 pM), IC50, Exp. B (marmoset or human fibroblasts: column heads unclear) [1] [nM] | IL-6 prod. in dermal fibroblasts stimulated with recombinant marmoset IL-1β (18 pM), IC50, Exp. C (marmoset or human fibroblasts: column heads unclear) [1] [nM] | binding result (Recombinant human IL-18) | binding result [2] | binding result (Recombinant human IL-1β) | binding result [3]
mAb2 (antibody, human IgG1, kappa, V domains shown, Human monospecific bivalent IgG1 with kappa light chain (Vkappa6); also called IL-1β antibody; anti IL-1β IgG1) VH: QVQLVESGGGVVQPGRSLRLSCAASGFTFSVYGMNWVRQAPGKGLEWVAIIWYDGDNQYYADSVKGRFTISRDNSKNTLYLQMNGLRAEDTAVYYCARDLRTGPFDYWGQGTLVTVSS VL: EIVLTQSPDFQSVTPKEKVTITCRASQSIGSSLHWYQQKPDQSPKLLIKYASQSFSGVPSRFSGSGSGTDFTLTINSLEAEDAAAYYCHQSSSLPFTFGPGTKVDIKR | 95 | 0.138 | 0.114 | no binding | no binding | – | –
mAb1 (antibody, human IgG1, lambda, L234A L235A, V domains shown, Human monospecific bivalent IgG1 with lambda light chain (Vlambda1); also called IL-18 antibody; anti-IL18 IgG1) VH: EVQLVQSGAEVKKPGSSVKVSCKASGGTFKSYAISWVRQAPGQGLEWMGNIIPMTGQTYYAQKFQGRVTITADESTSTAYMELSSLRSEDTAVYYCARAAYHPLVFDNWGQGTLVTVSS VL: DIVLTQPPSVSGAPGQRVTISCSGSSSNIGNHYVNWYQQLPGTAPKLLIYRNNHRPSGVPDRFSGSKSGTSASLAITGLQSEDEADYYCQSWDYSGFSTVFGGGTKLTVLG | – | – | – | – | – | no binding | no binding

Reference: US20200308309A1 (Novartis, published 2020)
